No end group written: not given here. TMR = tetramethyl rhodamine dye
Key:
Experiment in all cases: fluorescence polarisation; 37 °C, after the 25 °C reading ramped over 7 min to 37 °C and 2 min incubation; unlabeled Rb^P against 1.5 nM TMR-E2F1^TD or 7.5 nM TMR-E7^LxCxE; 25 mM Tris pH 8.0, 200 mM NaCl, 1 mM DTT, 0.1% Tween-20; apparent Kd
Settings in all cases: both partners purified
[1] = target: T1, Rb^P R763T (human, UniProt P06400 380-788, R763T)
T1 construct: also called variant 75
T1 sequence (looked up): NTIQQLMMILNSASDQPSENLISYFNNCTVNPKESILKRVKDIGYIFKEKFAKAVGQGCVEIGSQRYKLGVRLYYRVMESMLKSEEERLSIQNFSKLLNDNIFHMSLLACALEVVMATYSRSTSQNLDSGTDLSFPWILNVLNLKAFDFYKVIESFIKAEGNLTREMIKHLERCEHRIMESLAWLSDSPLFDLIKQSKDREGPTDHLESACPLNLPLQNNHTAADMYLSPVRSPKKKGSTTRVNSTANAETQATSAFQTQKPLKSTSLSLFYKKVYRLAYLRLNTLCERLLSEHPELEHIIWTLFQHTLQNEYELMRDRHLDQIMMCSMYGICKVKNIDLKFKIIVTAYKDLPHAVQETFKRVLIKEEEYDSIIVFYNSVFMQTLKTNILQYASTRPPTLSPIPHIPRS

[2] = target: T2, Rb^P H673Y (human, UniProt P06400 380-788, H673Y)
T2 construct: also called variant 55
T2 sequence (looked up): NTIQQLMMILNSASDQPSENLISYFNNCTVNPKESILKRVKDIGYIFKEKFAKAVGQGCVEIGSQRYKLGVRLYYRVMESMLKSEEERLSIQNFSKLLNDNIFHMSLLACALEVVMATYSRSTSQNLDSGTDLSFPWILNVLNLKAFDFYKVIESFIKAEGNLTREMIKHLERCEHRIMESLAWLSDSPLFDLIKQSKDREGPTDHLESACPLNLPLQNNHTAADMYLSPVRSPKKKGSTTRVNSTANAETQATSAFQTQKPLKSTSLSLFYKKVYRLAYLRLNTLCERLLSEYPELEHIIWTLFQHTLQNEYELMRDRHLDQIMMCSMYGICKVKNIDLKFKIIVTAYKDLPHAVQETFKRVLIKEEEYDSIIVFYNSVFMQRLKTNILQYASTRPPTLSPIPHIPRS

[3] = target: T3, Rb^P V654L (human, UniProt P06400 380-788, V654L)
T3 construct: also called variant 47
T3 sequence (looked up): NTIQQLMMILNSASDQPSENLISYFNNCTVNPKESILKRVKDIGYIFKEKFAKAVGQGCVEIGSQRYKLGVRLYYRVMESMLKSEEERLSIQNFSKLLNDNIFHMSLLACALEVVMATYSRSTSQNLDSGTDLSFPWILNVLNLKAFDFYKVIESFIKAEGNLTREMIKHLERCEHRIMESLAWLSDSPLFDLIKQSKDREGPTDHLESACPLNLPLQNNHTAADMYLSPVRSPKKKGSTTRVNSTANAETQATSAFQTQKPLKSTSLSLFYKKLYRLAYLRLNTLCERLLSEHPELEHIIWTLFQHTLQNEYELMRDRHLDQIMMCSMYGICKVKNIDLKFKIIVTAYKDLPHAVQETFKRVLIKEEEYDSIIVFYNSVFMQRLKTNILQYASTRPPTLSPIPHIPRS

[4] = target: T4, Rb^P R668C (human, UniProt P06400 380-788, R668C)
T4 construct: also called variant 51
T4 sequence (looked up): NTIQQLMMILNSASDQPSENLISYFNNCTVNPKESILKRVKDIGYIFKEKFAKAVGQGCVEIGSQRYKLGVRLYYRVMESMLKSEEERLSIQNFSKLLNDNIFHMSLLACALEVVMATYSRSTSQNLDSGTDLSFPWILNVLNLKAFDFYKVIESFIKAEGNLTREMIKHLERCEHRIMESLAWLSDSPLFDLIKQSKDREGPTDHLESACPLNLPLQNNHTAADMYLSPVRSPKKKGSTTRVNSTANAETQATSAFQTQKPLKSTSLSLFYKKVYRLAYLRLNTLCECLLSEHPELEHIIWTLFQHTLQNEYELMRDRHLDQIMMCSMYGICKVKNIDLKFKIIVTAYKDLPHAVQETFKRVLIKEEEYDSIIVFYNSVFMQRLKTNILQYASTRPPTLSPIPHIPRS

[5] = target: T5, Rb^P S751Y (human, UniProt P06400 380-788, S751Y)
T5 construct: also called variant 72
T5 sequence (looked up): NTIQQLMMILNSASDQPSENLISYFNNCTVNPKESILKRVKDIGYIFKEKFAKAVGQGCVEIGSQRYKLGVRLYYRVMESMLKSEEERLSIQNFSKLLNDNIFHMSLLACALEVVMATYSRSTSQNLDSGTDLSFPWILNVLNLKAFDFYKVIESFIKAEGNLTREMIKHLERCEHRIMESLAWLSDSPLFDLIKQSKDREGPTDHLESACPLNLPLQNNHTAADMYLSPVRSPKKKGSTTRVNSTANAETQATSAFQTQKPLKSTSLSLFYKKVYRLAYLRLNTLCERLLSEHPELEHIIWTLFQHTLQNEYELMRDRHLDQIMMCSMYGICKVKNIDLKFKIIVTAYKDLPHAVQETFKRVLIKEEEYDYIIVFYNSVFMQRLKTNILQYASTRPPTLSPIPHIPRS

B1: TMR-E2F1^TD, peptide of the E2F1 transactivation domain (peptide)
peptide: {TMR}-GEGIRDLFDCDFGDLTPLD
notes: also called E2F^TD; source: synthetic peptide, bought: GenScript
Q: B1 was tested. Which Kd [1] did it give?
A: Its Kd is 59 nM.

Q: What about the Kd [2] of the same binder?
A: Its Kd is 66 nM.

Q: What about the Kd [3] of the same binder?
A: The Kd was 30 nM.

Q: What about the Kd [4] of the same binder?
A: Its Kd is 25 nM.

Q: What about the Kd [5] of the same binder?
A: Its Kd is 127 nM.

B2: TMR-E7^LxCxE, LxCxE peptide of the E7 oncoprotein from HPV (peptide)
peptide: DLYCYEQLN
modifications: also: TMR label, position not given here
notes: source: synthetic peptide, bought: GenScript
Q: Which Kd [1] does the source give for B2 here?
A: The Kd was 35 nM.

Q: And the Kd [2]?
A: Its Kd is 29 nM.

Q: What about the Kd [3] of the same binder?
A: The Kd was 21 nM.

Q: What about the Kd [4] of the same binder?
A: Its Kd is 16 nM.

Q: What about the Kd [5] of the same binder?
A: Its Kd is 420 nM.
